Laboratory results from the supplement of paper PMC10567573.

B1: UBE2R2 (parent)
chain: DPQSGELPSERWNPTQNVRTILLS

Variants of: B1
Test: protein stability index of a GFP-peptide fusion (GPS, HEK-293T) (PSI 1-6); higher = more stable
Conditions: c terminus: a fixed tail appended
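Also: lentivirally expressed fusions sorted by FACS into six bins by GFP to DsRed ratio, PSI derived from sequencing read proportions per bin multiplied by bin number.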

Variant	protein stability index
DPQSGTLPSERWNPTQNVRTILLS [E6T]	3.37
DPQSGQLPSERWNPTQNVRTILLS [E6Q]	3.49
DPQSGILPSERWNPTQNVRTILLS [E6I]	3.24
DPQSGVLPSERWNPTQNVRTILLS [E6V]	3.17
DPQSGSLPSERWNPTQNVRTILLS [E6S]	3.1
DPQSGWLPSERWNPTQNVRTILLS [E6W]	2.89
DPQSGHLPSERWNPTQNVRTILLS [E6H]	3.25
DPQSGNLPSERWNPTQNVRTILLS [E6N]	3.48
DQQSGELPSERWNPTQNVRTILLS [P2Q]	3.22
DAQSGELPSERWNPTQNVRTILLS [P2A]	3.66
DNQSGELPSERWNPTQNVRTILLS [P2N]	3.35
DFQSGELPSERWNPTQNVRTILLS [P2F]	2.81
DWQSGELPSERWNPTQNVRTILLS [P2W]	2.34
DGQSGELPSERWNPTQNVRTILLS [P2G]	3.06
DRQSGELPSERWNPTQNVRTILLS [P2R]	3.09
DEQSGELPSERWNPTQNVRTILLS [P2E]	3.59
DPQSGEVPSERWNPTQNVRTILLS [L7V]	3.19
DPQSGEFPSERWNPTQNVRTILLS [L7F]	3.2
DPQSGEIPSERWNPTQNVRTILLS [L7I]	3.35
DPQSGEWPSERWNPTQNVRTILLS [L7W]	2.62
DPQSGEHPSERWNPTQNVRTILLS [L7H]	3.67
DPQSGEQPSERWNPTQNVRTILLS [L7Q]	4.32
DPQSGEKPSERWNPTQNVRTILLS [L7K]	3.81
DPQSGETPSERWNPTQNVRTILLS [L7T]	4.12

Variant	protein stability index
DPQSGEEPSERWNPTQNVRTILLS [L7E]	4.02
DPQSGEPPSERWNPTQNVRTILLS [L7P]	4.68
DPCSGELPSERWNPTQNVRTILLS [Q3C]	3.81
DPDSGELPSERWNPTQNVRTILLS [Q3D]	3.9
DPTSGELPSERWNPTQNVRTILLS [Q3T]	4.11
DPISGELPSERWNPTQNVRTILLS [Q3I]	3.24
DPASGELPSERWNPTQNVRTILLS [Q3A]	3.67
DPHSGELPSERWNPTQNVRTILLS [Q3H]	3.22
DPMSGELPSERWNPTQNVRTILLS [Q3M]	3.53
DPGSGELPSERWNPTQNVRTILLS [Q3G]	3.79
DPQSGELPSFRWNPTQNVRTILLS [E10F]	2.45
DPQSGELPSHRWNPTQNVRTILLS [E10H]	3.14
DPQSGELPSSRWNPTQNVRTILLS [E10S]	2.95
DPQSGELPSCRWNPTQNVRTILLS [E10C]	2.81
DPQSGELPSNRWNPTQNVRTILLS [E10N]	3.35
DPQSGELPSTRWNPTQNVRTILLS [E10T]	3.48
DPQSGELPSERWNPTQNVRTIMLS [L22M]	4.11
DPQSGELPSERWNPTQNVRTIRLS [L22R]	4.29
DPQSGELPSERWNPTQNVRTIHLS [L22H]	4.2
DPQSGELPSERWNPTQNVRTINLS [L22N]	4.47
DPQSGELPSERWNPTQNVRTISLS [L22S]	3.88
DPQSGELPSERWNPTQNVRTIALS [L22A]	4.31
DPQSGELPSERWNPTQNVRTICLS [L22C]	4.12
DPQSGELPSERWNPTQNHRTILLS [V18H]	4

Variant	protein stability index
DPQSGELPSERWNPTQNFRTILLS [V18F]	3.61
DPQSGELPSERWNPTQNSRTILLS [V18S]	3.92
DPQSGELPSERWNPTQNERTILLS [V18E]	4.06
DPQSGELPSERWNPTQNMRTILLS [V18M]	3.3
DPQSGELPSERWNPTQNLRTILLS [V18L]	3.27
DPQSGELPSERWNPTQNCRTILLS [V18C]	3.9
DPQSGELPSERWNPTQNWRTILLS [V18W]	3.24
DPQSGELPSERWNPTQNTRTILLS [V18T]	4.04
DPQSGELPSERWNPTQNGRTILLS [V18G]	4
DPQSGELPSERWNPTQNRRTILLS [V18R]	4.14
DPQSGELPSERWNPTQNNRTILLS [V18N]	4
DPQSGELPSEQWNPTQNVRTILLS [R11Q]	4.04
DPQSGELPSEWWNPTQNVRTILLS [R11W]	2.79
DPQSGELPSEMWNPTQNVRTILLS [R11M]	3.22
DPQSGELPSEEWNPTQNVRTILLS [R11E]	4.44
DPQSGELPSEDWNPTQNVRTILLS [R11D]	3.88
DPQSGELPSESWNPTQNVRTILLS [R11S]	3.56
DPQSGELPSETWNPTQNVRTILLS [R11T]	3.98
DPQSGELPSENWNPTQNVRTILLS [R11N]	3.48
DPQSGELPSERVNPTQNVRTILLS [W12V]	4.2
DPQSGELPSERRNPTQNVRTILLS [W12R]	4.31
DPQSGELPSERFNPTQNVRTILLS [W12F]	3.92
DPQSGELPSERANPTQNVRTILLS [W12A]	4.61
DPQSGELPSERSNPTQNVRTILLS [W12S]	4.67

Variant	protein stability index
DPQSGELPSERQNPTQNVRTILLS [W12Q]	4.44
DPQSGELPSERWNPTQNVETILLS [R19E]	4.76
DPQSGELPSERWNPTQNVTTILLS [R19T]	3.21
DPQSGELPSERWNPTQNVGTILLS [R19G]	3.7
DPQSGELPSERWNPTQNVKTILLS [R19K]	3.95
DPQSGELPSERWNPTQNVNTILLS [R19N]	4.5
DPQSGELPSERWNPTQNVCTILLS [R19C]	3.05
DPQSGELPSERWNPTQNVWTILLS [R19W]	1.85
DPQSGELPSERWNPTQNVLTILLS [R19L]	2.61
DPQSGELPSERWNPTQNVITILLS [R19I]	2.41
DPQSGELPSERWNPTQNVHTILLS [R19H]	3.43
DPQSGELPSERWNPTQNVRTILLE [S24E]	4.23
DPQSGELPSERWNPTQNVRTILLV [S24V]	2.81
DPQSGELPSERWNPTQNVRTILLL [S24L]	1.56
DPQSGELPSERWNPTQNVRTILLD [S24D]	4.43
DPQSGELPSERWNPTQNVRTILLR [S24R]	3.16
DPQSGELPSERWNPTQNVRTILLY [S24Y]	2.04
DPQSGELPSERWNPTQNVRTILLP [S24P]	3.95
DPQSGELPSERWNPTQNVRTILLI [S24I]	1.84
DPQSGELPSERWNPTQNVRTILLC [S24C]	2.35
DPQSGELPSERWNPTQNVRTILLA [S24A]	2.82
DPQSGELPSERWNPTQNVRTILLN [S24N]	3.86
DPQSTELPSERWNPTQNVRTILLS [G5T]	3.93
DPQSHELPSERWNPTQNVRTILLS [G5H]	3.83

Variant	protein stability index
DPQSVELPSERWNPTQNVRTILLS [G5V]	3.27
DPQSSELPSERWNPTQNVRTILLS [G5S]	3.61
DPQSYELPSERWNPTQNVRTILLS [G5Y]	3.17
DPQSGELPSERWNPTQLVRTILLS [N17L]	2.54
DPQSGELPSERWNPTQRVRTILLS [N17R]	3.4
DPQSGELPSERWNPTQAVRTILLS [N17A]	3.06
DPQSGELPSERWNPTQIVRTILLS [N17I]	2.24
DPQSGELPSERWNPTQYVRTILLS [N17Y]	2.38
DPQSGELPSERWNPTQMVRTILLS [N17M]	2.39
DPQSGELPSERWNPTQFVRTILLS [N17F]	2.75
DPQSGELPSERWNPTQVVRTILLS [N17V]	2.4
DPQSGELPSERWNPTQTVRTILLS [N17T]	3.51
DPQSGELPSERWAPTQNVRTILLS [N13A]	3.78
DPQSGELPSERWGPTQNVRTILLS [N13G]	2.46
DPQSGELPSERWRPTQNVRTILLS [N13R]	3.31
DPQSGELPSERWSPTQNVRTILLS [N13S]	4
DPQSGELPSERWVPTQNVRTILLS [N13V]	3.17
DPQSGELPSERWTPTQNVRTILLS [N13T]	3.76
DPQSGELPSERWQPTQNVRTILLS [N13Q]	3.87
DPQSGELPSERWWPTQNVRTILLS [N13W]	2.87
DPQSGELPSERWNLTQNVRTILLS [P14L]	2.79
DPQSGELPSERWNKTQNVRTILLS [P14K]	3.56
DPQSGELPSERWNQTQNVRTILLS [P14Q]	3.93
DPQSGELPSERWNDTQNVRTILLS [P14D]	4.12

Variant	protein stability index
DPQSGELPSERWNCTQNVRTILLS [P14C]	3.35
DPQSGELPSERWNGTQNVRTILLS [P14G]	3.71
DPQSGELPSERWNHTQNVRTILLS [P14H]	2.98
DPQSGELPSERWNFTQNVRTILLS [P14F]	2.32
DPQSGELPSERWNTTQNVRTILLS [P14T]	4.13
DPQPGELPSERWNPTQNVRTILLS [S4P]	3.02
DPQQGELPSERWNPTQNVRTILLS [S4Q]	3.68
DPQLGELPSERWNPTQNVRTILLS [S4L]	3.6
KPQSGELPSERWNPTQNVRTILLS [D1K]	3.7
EPQSGELPSERWNPTQNVRTILLS [D1E]	3.31
GPQSGELPSERWNPTQNVRTILLS [D1G]	3.26
SPQSGELPSERWNPTQNVRTILLS [D1S]	2.25
TPQSGELPSERWNPTQNVRTILLS [D1T]	2.63
HPQSGELPSERWNPTQNVRTILLS [D1H]	3.34
DPQSGELPSERWNPTQNVRTILCS [L23C]	4.63
DPQSGELPSERWNPTQNVRTILAS [L23A]	4.23
DPQSGELPSERWNPTQNVRTILIS [L23I]	3.17
DPQSGELPSERWNPTQNVRTILMS [L23M]	3.7
DPQSGELPSERWNPTQNVRTILQS [L23Q]	4.65
DPQSGELPSERWNPTQNVRTILFS [L23F]	3.44
DPQSGELPSERWNPTQNVRTILYS [L23Y]	3.22
DPQSGELPSERWNPTQNVRTILDS [L23D]	4.91
DPQSGELPSERWNPTQNVRTILVS [L23V]	3.34
DPQSGELPSERWNPTQNVRTILRS [L23R]	4.5

Variant	protein stability index
DPQSGELPSERWNPTQNVRTILWS [L23W]	3.79
DPQSGELPSERWNPLQNVRTILLS [T15L]	2.86
DPQSGELPSERWNPGQNVRTILLS [T15G]	3.53
DPQSGELPSERWNPEQNVRTILLS [T15E]	3.6
DPQSGELPSERWNPDQNVRTILLS [T15D]	4.15
DPQSGELPSERWNPSQNVRTILLS [T15S]	3.39
DPQSGELPSERWNPFQNVRTILLS [T15F]	2.51
DPQSGELPSERWNPYQNVRTILLS [T15Y]	3.22
DPQSGELPYERWNPTQNVRTILLS [S9Y]	2.92
DPQSGELPQERWNPTQNVRTILLS [S9Q]	3.35
DPQSGELPPERWNPTQNVRTILLS [S9P]	3.43
DPQSGELPHERWNPTQNVRTILLS [S9H]	3.47
DPQSGELPDERWNPTQNVRTILLS [S9D]	3.86
DPQSGELPTERWNPTQNVRTILLS [S9T]	3.98
DPQSGELPIERWNPTQNVRTILLS [S9I]	4.09
DPQSGELPFERWNPTQNVRTILLS [S9F]	2.4
DPQSGELRSERWNPTQNVRTILLS [P8R]	3.37
DPQSGELESERWNPTQNVRTILLS [P8E]	3.82
DPQSGELYSERWNPTQNVRTILLS [P8Y]	3.34
DPQSGELCSERWNPTQNVRTILLS [P8C]	4.2
DPQSGELTSERWNPTQNVRTILLS [P8T]	3.06
DPQSGELNSERWNPTQNVRTILLS [P8N]	3.53
DPQSGELPSERWNPTQNVRTDLLS [I21D]	4.6
DPQSGELPSERWNPTQNVRTVLLS [I21V]	3.9

Variant	protein stability index
DPQSGELPSERWNPTQNVRTNLLS [I21N]	4.6
DPQSGELPSERWNPTQNVRTWLLS [I21W]	3.55
DPQSGELPSERWNPTQNVRTPLLS [I21P]	4.3
DPQSGELPSERWNPTQNVRTLLLS [I21L]	3.96
DPQSGELPSERWNPTQNVRTELLS [I21E]	4.53
DPQSGELPSERWNPTQNVRTFLLS [I21F]	3.96
DPQSGELPSERWNPTQNVRTHLLS [I21H]	4.49
DPQSGELPSERWNPTQNVRTGLLS [I21G]	4.81
DPQSGELPSERWNPTQNVRTALLS [I21A]	5.11
DPQSGELPSERWNPTLNVRTILLS [Q16L]	2.88
DPQSGELPSERWNPTINVRTILLS [Q16I]	2.83
DPQSGELPSERWNPTVNVRTILLS [Q16V]	3.11
DPQSGELPSERWNPTENVRTILLS [Q16E]	2.95
DPQSGELPSERWNPTNNVRTILLS [Q16N]	3.48
DPQSGELPSERWNPTQNVRGILLS [T20G]	2.9
DPQSGELPSERWNPTQNVRVILLS [T20V]	2.05
DPQSGELPSERWNPTQNVRRILLS [T20R]	3.32
DPQSGELPSERWNPTQNVRWILLS [T20W]	2.93
DPQSGELPSERWNPTQNVRKILLS [T20K]	4.43
DPQSGELPSERWNPTQNVRIILLS [T20I]	1.65
